Results taken from article PMC11937253.

B1: Nanobody M1R-03 (VHH)
VHH: QVQLVESGGGLVQAGGSLRLSCAASGSIFETGAMGWYRQAPGKEREFVAAITGWDTNYADSVKGRFTISRDNAKNTVYLQMNSLKPEDTAVYYCAASHWISFYWEHYHPYDYWGQGTQVTVSS
B2: Nanobody M1R-02 (VHH)
VHH: QVQLVESGGGLVQAGGSLRLSCAASGFIFDHWEMGWYRQAPGKEREFVASISAGLSTNYADSVKGRFTISRDNAKNTVYLQMNSLKPEDTAVYYCAARHFTAVFWKNSYDYWGQGTQVTVSS
B3: Nanobody M1R-05 (VHH)
VHH: QVQLVESGGGLVQAGGSLRLSCAASGFIFYAWHMGWYRQAPGKERELVASIAYGGDTNYADSVKGRFTISRDNAKNTVYLQMNSLKPEDTAVYYCAAVHFTHHKWDQEYDYWGQGTQVTVSS
B4: Nanobody H3L-03 (VHH)
VHH: QVQLVESGGGLVQAGGSLRLSCAASGRIFFFAKMGWYRQAPGKEREFVASIVYGDITYYADSVKGRFTISRDNAKNTVYLQMNSLKPEDTAVYYCAAKPHWPSRRPRRYDYWGQGTQVTVSS
B5: Nanobody H3L-01 (VHH)
VHH: QVQLVESGGGLVQAGGSLRLSCAASGRIFWWVPMGWYRQAPGKEREFVAGISKGDSTYYADSVKGRFTISRNNAKNTVYLQMNSLKPEDTAVYYCAANPRNNRFRAGVYDYWGQGTQVTVSS
B6: Nanobody H3L-02 (VHH)
VHH: QVQLVESGGGLVQAGGSLRLSCAASGRIFLHRIMGWYRQAPGKERELVASISRGDNTYYADSVKGRFTISRDNAKNTVYLQMNSLKPEDTAVYYCAAGTGRHKDDHKDYDYWGQGTQVTVSS
B7: Nanobody E8L-01 (VHH)
VHH: QVQLVESGGGLVQAGGSLRLSCAASGRIFINRVMGWYRQAPGKEREFVAGIAQGGSTNYADSVKGRFTISRDNAKNTVYLQMNSLKPEDTAVYYCAAKFWNWHHDHRGYDYWGQGTQVTVSS
B8: Nanobody E8L-06 (VHH)
VHH: QVQLVESGGGLVQAGGSLRLSCAASGFIFTSTRMGWYRQAPGKEREFVAGISIGGNTNYADSVKGRFTISRDNAKNTVYLQMNSLKPEDTAVYYCAARYYYFHNHNFAYDYWGQGTQVTVSS
B9: Nanobody E8L-04 (VHH)
VHH: QVQLVESGGGLVQAGGSLRLSCAASGRIFGRRAMGWYRQAPGKEREFVAAISNGFNTNYADSVKGRFTISRDNAKNTVYLQMNSLKPEDTAVYYCAATVSRRGEQTFFYDYWGQGTQVTVSS
B10: Nanobody E8L-08 (VHH)
VHH: QVQLVESGGGLVQAGGSLRLSCAASGFIFTNWGMGWYRQAPGKERELVAAITSGSSTNYADSVKGRFTISRDNAKNTVYLQMNSLKPEDTAVYYCAAIRGFSLIYQFFAQYDYWGQGTQVTVSS
B11: Nanobody E8L-07 (VHH)
VHH: QVQLVESGGGLVQAGGSLRLSCAASGSIFKRYKMGWYRQAPGKEREFVACINKGGDTNYADSVKGRFTISRDNAKNTVYLQMNSLKPEDTAVYYCAVKRHAKAYGEFFYDYWGQGTQVTVSS
B12: Nanobody E8L-05 (VHH)
VHH: QVQLVESGGGLVQAGGSLRLSCAASGRIFDTVEMGWYRQAPGKEREFVASISGGDSTYYADSVKGRFTISRDNAKNTVYLQMNSLKPEDTAVYYCAARSARNRWSIIFYDYWGQGTQVTVSS
B13: Nanobody E8L-02 (VHH)
VHH: QVQLVESGGGLVQAGGSLRLSCAASGRIFTDSYMGWYRQAPGKEREFVACITTGSSTYYADSVKGRFTISRDNAKNTVYLQMNSLKPEDTAVYYCAARFRYTVQHWFHTKFDYWGQGTQVTVSS
B14: Nanobody E8L-03 (VHH)
VHH: QVQLVESGGGLVQAGGSLRLSCAASGFIFTTRGMGWYRQAPGKEREFVACIFPGSSTNYADSVKGRFTISRDNAKNTVYLQMNSLKPEDTAVYYCAAEGPYRGFNFKKNLYDYWGQGTQVTVSS
B15: Nanobody B6R-06 (VHH)
VHH: QVQLVESGGGLVQAGGSLRLSCAASGRIFRKRNMGWYRQAPGKEREFVASISRGSNTYYADSVKGRFTISRDNAKNTVYLQMNSLKPEDTAVYYCAVWRHRTFVRWKHFDYWGQGTQVTVSS
B16: Nanobody B6R-02 (VHH)
VHH: QVQLVESGGGLVQAGGSLRLSCAASGRIFRRNVMGWYRQAPGKEREFVAAITKGGYTNYADSVKGRFTISRDNAKNTVYLQMNSLKPEDTAVYYCAARYFHRKRHKWRHDYWGQGTQVTVSS
B17: Nanobody B6R-05 (VHH)
VHH: QVQLVESGGGLVQAGGSLRLSCAASGRIFHPGAMGWYRQAPGKEREFVAGISSGGNTYYADSVKGRFTISRDNAKNTVYLQMNSLKPEDTAVYYCAAPFRWVKATGRFLDYWGQGTQVTVSS
B18: Nanobody B6R-04 (VHH)
VHH: QVQLVESGGGLVQAGGSLRLSCAASGRIFASDRMGWYRQAPGKEREFVAAISYGSRTNYADSVKGRFTISRDNAKNTVYLQMNSLKPEDTAVYYCAVWAFHRSWKERSHWHDYWGQGTQVTVSS
B19: Nanobody B6R-03 (VHH)
VHH: QVQLVESGGGLVQAGGSLRLSCAASGRILHRKGMGWYRQAPGKEREFVAAINKGGSTNYADSVKGRFTISRDNAKNTVYLQMNSLKPEDTAVYYCAVGKKRRTWINRHYDYWGQGTQVTVSS

Target: MPXV M1R ectodomain, His-tagged recombinant protein (mpox virus (MPXV), isolate MPXV_USA_2022_MA001)
Assay: SPR; BiaCore T200; […]; 1:1 binding model

Binder	Kd	koff	kon
B1	0.0249 µM	0.0401 s⁻¹	1.61e+06 M⁻¹ s⁻¹
B2	0.0235 µM	0.0016 s⁻¹	68300 M⁻¹ s⁻¹
B3	0.0859 µM	0.0037 s⁻¹	42800 M⁻¹ s⁻¹

Target: MPXV H3L ectodomain, His-tagged recombinant protein (mpox virus (MPXV), isolate MPXV_USA_2022_MA001)
Assay: SPR; BiaCore T200; […]; 1:1 binding model

Binder	Kd	koff	kon
B4	0.0352 µM	0.0092 s⁻¹	261000 M⁻¹ s⁻¹
B5	0.0112 µM	0.0209 s⁻¹	1.87e+06 M⁻¹ s⁻¹
B6	0.0948 µM	0.0725 s⁻¹	765000 M⁻¹ s⁻¹

Target: MPXV E8L ectodomain, His-tagged recombinant protein (mpox virus (MPXV), isolate MPXV_USA_2022_MA001)
Assay: SPR; BiaCore T200; […]; 1:1 binding model

Binder	Kd	koff	kon
B7	0.00066 µM	0.0029 s⁻¹	4.35e+06 M⁻¹ s⁻¹
B8	0.0116 µM	0.0105 s⁻¹	910000 M⁻¹ s⁻¹
B9	0.00177 µM	0.0015 s⁻¹	876000 M⁻¹ s⁻¹
B10	0.00311 µM	0.002 s⁻¹	646000 M⁻¹ s⁻¹
B11	0.00317 µM	0.0018 s⁻¹	539000 M⁻¹ s⁻¹
B12	0.00239 µM	0.002 s⁻¹	838000 M⁻¹ s⁻¹
B13	0.00169 µM	0.0003 s⁻¹	184000 M⁻¹ s⁻¹
B14	0.00581 µM	0.0034 s⁻¹	662000 M⁻¹ s⁻¹

Target: MPXV B6R ectodomain, His-tagged recombinant protein (mpox virus (MPXV), isolate MPXV_USA_2022_MA001)
Assay: SPR; BiaCore T200; […]; 1:1 binding model

Binder	Kd	koff	kon
B15	0.0121 µM	0.0056 s⁻¹	462000 M⁻¹ s⁻¹
B16	14 µM	0.0029 s⁻¹	209 M⁻¹ s⁻¹
B17	95.4 µM	0.0008 s⁻¹	8.9 M⁻¹ s⁻¹
B18	1.03 µM	0.0412 s⁻¹	39900 M⁻¹ s⁻¹
B19	3.18 µM	0.349 s⁻¹	110000 M⁻¹ s⁻¹
